{
  "source": "patent US12194200B2",
  "about": "“Silk fibroin-based microneedles and methods of making the same” (Trustees of Tufts College, priority 2010, dated 2025)",
  "experiment": "HRP enzymatic activity detected with chromogenic substrate",
  "assay_type": "biochemical",
  "details": "after silk processing and collagenase digestion",
  "experimental": "The release kinetics of HRP from silk fibroin microneedles into the collagen hydrogels (N=3) were determined spectroscopically. The collagen hydrogel was selectively digested with collagenase. Subsequently, a colorimetric HRP enzyme activity assay was carried out as described later in the Exemplary Materials and Methods (FIG. 9C). […] Compared to the 2 hour and 8 hour water annealed devices, the untreated silk microneedles released in the same time period about 2.7±0.18 and about 5.6±0.99 times as much HRP, respectively. The beta sheet content in the silk fiborin microneedle samples was determined, e.g., by infrared spectroscopy, with results of ˜14%, ˜18% and ˜21% for the untreated, 2 hr-annealed and 8 hr-annealed silk fibroin microneedle samples, respectively. […]\nHRP release model: The silk fibroin microneedles were loaded with 1 mg/ml of HRP (Sigma Aldrich). […] The collagen or gelatin slab measured approximately 2.5 mm in height. […] The needles were pierced through Parafilm (Parafilm M, Pechiney Plastic Packaging) membranes (polymer membrane in FIG. 8A) and subsequently applied to the hydrogel slabs to quantify the HRP release. […] To quantify the total amount of HRP release from the silk fibroin microneedles, a plurality of stacks, each of which included an array of silk fibroin microneedles, a polymer membrane and a collagen hydrogel, were prepared and evaluated at multiple time points. […]",
  "data": [
    {"substance": "horseradish peroxidase [HRP]", "values": [
      {"measurement": "enzymatic activity of HRP", "value": "retained activity"}
    ]}
  ]
}
